The values below come from publication PMC6155142, “OCP–FRP protein complex topologies suggest a mechanism for controlling high light tolerance in cyanobacteria” (Nature Communications, 2018).

T1: oxidized FRPcc (L33C/I43C mutant of Synechocystis FRP), disulfide-trapped dimer (Synechocystis, UniProt P74103 1-109, L33C | I43C, intersubunit disulfide bridges between C33 and C43)
T1 sequence: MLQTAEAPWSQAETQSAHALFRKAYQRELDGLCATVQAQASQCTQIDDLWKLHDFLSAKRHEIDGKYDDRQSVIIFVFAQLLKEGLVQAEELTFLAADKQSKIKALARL

T2: OCP–F299C mutant of Synechocystis OCP (Synechocystis sp. PCC 6803, UniProt P74102 1-317, F299C)
T2 sequence (looked up): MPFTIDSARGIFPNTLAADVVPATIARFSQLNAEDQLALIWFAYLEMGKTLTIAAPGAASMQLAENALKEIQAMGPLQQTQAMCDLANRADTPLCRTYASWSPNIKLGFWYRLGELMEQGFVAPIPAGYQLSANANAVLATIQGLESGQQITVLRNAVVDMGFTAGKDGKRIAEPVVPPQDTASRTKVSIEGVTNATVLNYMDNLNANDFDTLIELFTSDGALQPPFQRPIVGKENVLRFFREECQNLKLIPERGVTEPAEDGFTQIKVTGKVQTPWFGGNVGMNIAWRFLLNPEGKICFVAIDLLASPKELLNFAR

T3: ∆NTE^O, orange form of Synechocystis OCP lacking the N-terminal extension (residues 1–20) (Synechocystis sp. PCC 6803, UniProt P74102 21-317)
T3 construct: orange carotenoid protein (OCP) of Synechocystis sp; PCC 6803 without the NTE (residues 1–20); also called ∆NTE^O monomer
T3 sequence (looked up): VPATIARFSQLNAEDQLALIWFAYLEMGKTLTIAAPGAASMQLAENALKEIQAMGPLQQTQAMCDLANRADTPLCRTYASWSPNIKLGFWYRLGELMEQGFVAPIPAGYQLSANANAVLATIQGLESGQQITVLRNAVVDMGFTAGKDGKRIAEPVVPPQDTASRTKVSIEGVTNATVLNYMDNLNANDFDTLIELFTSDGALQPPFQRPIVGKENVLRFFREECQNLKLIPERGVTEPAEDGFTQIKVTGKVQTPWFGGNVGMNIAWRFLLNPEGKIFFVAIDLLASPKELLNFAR

T4: OCP^Y201A/W288A, constantly active mutant of Synechocystis orange carotenoid protein (Synechocystis sp. PCC 6803, UniProt P74102 1-317, Y201A | W288A)
T4 construct: orange carotenoid protein (OCP) of Synechocystis sp; PCC 6803 with Y201A and W288A; also called OCP^AA
T4 sequence (looked up): T2 sequence (looked up) with Y201A, W288A, C299F

T5: COCP, individual C-terminal domain of Synechocystis OCP (amino acids 165–317) (Synechocystis sp. PCC 6803, UniProt P74102 165-317)
T5 construct: C-terminal domain of the orange carotenoid protein (OCP) of Synechocystis sp; PCC 6803, amino acids 165–317; also called CTD; individual CTD
T5 sequence (looked up): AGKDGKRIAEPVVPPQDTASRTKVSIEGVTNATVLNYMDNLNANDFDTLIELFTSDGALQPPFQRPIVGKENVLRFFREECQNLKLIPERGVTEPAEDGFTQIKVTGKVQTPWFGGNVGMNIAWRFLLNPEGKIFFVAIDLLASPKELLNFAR

B1: ∆NTE^O, orange form of Synechocystis OCP lacking the N-terminal extension (residues 1–20) (domain or fragment)
chain: T3 sequence (looked up)
B2: wild-type Synechocystis fluorescence recovery protein (FRP), His6-tagged, residues 1–109 (natural protein, UniProt P74103 1-109, looked up)
chain: T1 sequence with C33L, C43I
notes: fluorescence recovery protein (FRP) of Synechocystis, residues 1–109; cloned into pQE81L by BamHI/HindIII; Uncleavable tag; Dissociable dimer; also called FRPwt; wild-type FRP; not shown: His6, N-terminal, kept
B3: FRP–K102C mutant of Synechocystis FRP (natural protein, UniProt P74103 1-109, looked up)
chain: T1 sequence with C33L, C43I, K102C
notes: fluorescence recovery protein (FRP) of Synechocystis with K102C, from M1 (N-terminus after cleavage of the tag: GPDPATM1LQ…); the wild-type construct is residues 1–109; pQE81M vector; the His6 tag is cleavable by 3C protease and leaves GPDPAT before M1
B4: FRPcc (L33C/I43C mutant of Synechocystis FRP) under reducing conditions (natural protein, UniProt P74103 1-109, looked up)
chain: T1 sequence
notes: fluorescence recovery protein (FRP) of Synechocystis, residues 1–109, with L33C and I43C; made from the His6-tagged wild-type template; Cysteines reduced; dissociable dimer (dimeric above 10 µM load, partly dissociates on dilution); also called redFRPcc; not shown: His6, N-terminal, kept
B5: oxidized FRPcc (L33C/I43C mutant of Synechocystis FRP), disulfide-trapped dimer (natural protein, UniProt P74103 1-109, looked up)
chain: T1 sequence
modifications: intersubunit disulfide bridges between C33 and C43
notes: fluorescence recovery protein (FRP) of Synechocystis, residues 1–109, with L33C and I43C; made from the His6-tagged wild-type template; Same polypeptide as m3, but covalently fixed as a dimer that cannot monomerize; 22 N-terminal residues of the construct are absent from 4JDX; also called oxFRPcc; oxFRPcc dimer; source: E. coli T7 SHuffle express, purified in the absence of reducing agents, …

Substitutions are numbered along the chain they refer to. Names may count otherwise. “And” between values parts separate entries of the source, which are not always exact repeats. Identical values can stand only once.

Data set [1] addresses ∆NTE^O, orange form of Synechocystis OCP lacking the N-terminal extension (residues 1–20) (Synechocystis sp. PCC 6803) (UniProt P74102). Kind of data set: cross-linking; FRP species, ∆NTE^O or their mixtures in 20 mM Hepes-NaOH pH 7.5, 150 mM NaCl, 0.1 mM EDTA; 0.1% glutaraldehyde, 25 min, room temperature; 15% SDS-PAGE (no reducing agents with oxFRPcc). Conditions: scale: FRP chains per OCP.

For data set [2], the target named is OCP(O) (Synechocystis sp.) (UniProt P74102). The settings on record: cited from earlier work.
Data set [3] has as its target T1, oxidized FRPcc (L33C/I43C mutant of …).
The target of data set [4] is T2, OCP–F299C mutant of Synechocystis OCP. Kind of data set: cell-based or functional assay.
Data set [5] addresses B1.
In data set [6] the target is T3, ∆NTE^O, orange form of Synechocystis …. Kind of data set: cross-linking; FRP species, ∆NTE^O or their mixtures in 20 mM Hepes-NaOH pH 7.5, 150 mM NaCl, 0.1 mM EDTA; 0.1% glutaraldehyde, 25 min, room temperature; 15% SDS-PAGE (no reducing agents with oxFRPcc). Conditions: both partners purified.
Data set [7] deals with the molecule itself. The data set is described as follows: SEC; FRP species alone, 1–40 µM per monomer, pre-incubated at least 20 min at room temperature; Superdex 200 Increase 10/300; 20 mM Tris-HCl pH 7.6, 150 mM NaCl, 0.1 mM EDTA, 3 mM βME (reducing); dimer to monomers. In general terms: In gel filtration, larger molecules generally elute earlier.
Data set [8] has as its target T2, OCP–F299C mutant of Synechocystis OCP. Kind of data set: cross-linking; disulfide trapping: OCP–F299C apoform mixed with FRP–F76C or FRP–K102C, oxidized in the dark by dialysis at 4 °C against GSH/GSSG (or 30–60 min with 10–50 mM H2O2); SDS-PAGE with or without 20 mM βME. The settings on record: both partners purified.
The target of data set [9] is T4, OCP^Y201A/W288A, constantly active …. The data set is described as follows: SEC; redFRPcc or FRP-L49E (50 µM) pre-incubated with OCP^AA (37 µM), ∆NTE^O (6 µM) or COCP (8 µM); Superdex 200 Increase 10/300; 280 nm and carotenoid-specific absorbance. Conditions: both partners purified.
For data set [10], the target named is T3, ∆NTE^O, orange form of Synechocystis …. The data set is described as above. Conditions: both partners purified.
Data set [11] addresses T5, COCP, individual C-terminal domain of …. The data set is described as above. The settings on record: both partners purified.
For data set [12], the target named is T3, ∆NTE^O, orange form of Synechocystis …. The data set is described as follows: SAXS; oxFRPcc alone (1.7 mg ml^−1) and the ∆NTE^O–oxFRPcc complex (2.41 mg ml^−1, ~40 µM); batch mode, 10 °C, SEC buffer with 3% glycerol, no reducing agents. Conditions: both partners purified.
Data set [13] concerns the molecule itself. Described as above.

A word on the stoichiometry N: it is the number of molecules, sites or subunits per partner or assembly. As for “FRP homolog from Anabaena variabilis (natural protein)”, the stoichiometry N in data set [1] was 1 and 2.
As a reminder, the Kd is the free concentration of one partner at which half of the binding sites on the other are occupied at equilibrium, for simple one-to-one binding. With FRP (from UniProt P74103), in data set [2], the Kd was 35000 nM.
As to B1, the affinity in [3], expressed as Kd, was 220 nM.
As for B2, the “acceleration of the R–O conversion of photoactivated OCP–F299C at 25 °C” value in data set [4] is about 20 fold. In data set [5], this molecule showed a Kd of 190 nM. In addition, the “stoichiometry N” value in [6] was 1 FRP chains per OCP (printed as OCP:FRP 1:1) and 2 FRP chains per OCP (printed as OCP:FRP 1:2); in [7], 2.
As for B3, the “stoichiometry N” value in [8] was 1 FRP chains per OCP (printed as 1:1).
In the case of B4, the binding result in data set [9], in data set [10] and in data set [11] was “binds” throughout. Also, the “stoichiometry N” value in data set [7] came to 2.
On to B5, for which the “stoichiometry N” value is 2 FRP chains per OCP (printed as 2:1) in data set [12]; 2 in [13]; 2 FRP chains per OCP (printed as OCP:FRP 1:2) and 1 FRP chains per OCP (printed as OCP:FRP 2:2) in data set [6].
